We go through three molecules from publication doi:10.1101/699223 (bioRxiv, 2019).

Sequences and labels used below:
B1: human BBS9 (Bardet-Biedl syndrome protein 9), wild type, Flag-tagged (natural protein, UniProt Q3SYG4 1-887, looked up)
chain: MSLFKARDWWSTILGDKEEFDQGCLCLANVDNSGNGQDKIIVGSFMGYLRIFSPHPAKTGDGAQAEDLLLEVDLRDPVLQVEVGKFVSGTEMLHLAVLHSRKLCVYSVSGTLGNVEHGNQCQMKLMYEHNLQRTACNMTYGSFGGVKGRDLICIQSMDGMLMVFEQESYAFGRFLPGFLLPGPLAYSSRTDSFLTVSSCQQVESYKYQVLAFATDADKRQETEQQKLGSGKRLVVDWTLNIGEQALDICIVSFNQSASSVFVLGERNFFCLKDNGQIRFMKKLDWSPSCFLPYCSVSEGTINTLIGNHNNMLHIYQDVTLKWATQLPHIPVAVRVGCLHDLKGVIVTLSDDGHLQCSYLGTDPSLFQAPNVQSRELNYDELDVEMKELQKIIKDVNKSQGVWPMTEREDDLNVSVVVSPNFDSVSQATDVEVGTDLVPSVTVKVTLQNRVILQKAKLSVYVQPPLELTCDQFTFEFMTPDLTRTVSFSVYLKRSYTPSELEGNAVVSYSRPTDRNPDGIPRVIQCKFRLPLKLICLPGQPSKTASHKITIDTNKSPVSLLSLFPGFASQSDDDQVNVMGFHFLGGARITVLASKTSQRYRIQSEQFEDLWLITNELILRLQEYFEKQGVKDFACSFSGSIPLQEYFELIDHHFELRINGEKLEELLSERAVQFRAIQRRLLARFKDKTPAPLQHLDTLLDGTYKQVIALADAVEENQGNLFQSFTRLKSATHLVILLIALWQKLSADQVAILEAAFLPLQEDTQELGWEETVDAAISHLLKTCLSKSSKEQALNLNSQLNIPKDTSQLKKHITLLCDRLSKGGRLCLSTDAAAPQTMVMPGGCTTIPESDLEERSVEQDSTELFTNHRHLTAETPRPEVSPLQGVSE
B2: human BBS2 (Bardet-Biedl syndrome protein 2), wild type, HPC4- and c-Myc-tagged (natural protein, UniProt Q9BXC9 1-721, looked up)
chain: MLLPVFTLKLRHKISPRMVAIGRYDGTHPCLAAATQTGKVFIHNPHTRNQHVSASRVFQSPLESDVSLLSINQAVSCLTAGVLNPELGYDALLVGTQTNLLAYDVYNNSDLFYREVADGANAIVLGTLGDISSPLAIIGGNCALQGFNHEGSDLFWTVTGDNVNSLALCDFDGDGKKELLVGSEDFDIRVFKEDEIVAEMTETEIVTSLCPMYGSRFGYALSNGTVGVYDKTSRYWRIKSKNHAMSIHAFDLNSDGVNELITGWSNGKVDARSDRTGEVIFKDNFSSAIAGVVEGDYRMDGHIQLICCSVDGEIRGYLPGTAEMRGNLMDTSAEQDLIRELSQKKQNLLLELRNYEENAKAELASPLNEADGHRGIIPANTRLHTTLSVSLGNETQTAHTELRISTSNDTIIRAVLIFAEGIFTGESHVVHPSIHNLSSSICIPIVPPKDVPVDLHLKAFVGYRSSTQFHVFESTRQLPRFSMYALTSLDPASEPISYVNFTIAERAQRVVVWLGQNFLLPEDTHIQNAPFQVCFTSLRNGGHLHIKIKLSGEITINTDDIDLAGDIIQSMASFFAIEDLQVEADFPVYFEELRKVLVKVDEYHSVHQKLSADMADHSNLIRSLLVGAEDARLMRDMKTMKSRYMELYDLNRDLLNGYKIRCNNHTELLGNLKAVNQAIQRAGRLRVGKPKNQVITACRDAIRSNNINTLFKIMRVGTASS

For experiment [1], the target named is T1, human BBS2 R632P, c-Myc-tagged (human, UniProt Q9BXC9 1-721, R632P).
T1 sequence (looked up): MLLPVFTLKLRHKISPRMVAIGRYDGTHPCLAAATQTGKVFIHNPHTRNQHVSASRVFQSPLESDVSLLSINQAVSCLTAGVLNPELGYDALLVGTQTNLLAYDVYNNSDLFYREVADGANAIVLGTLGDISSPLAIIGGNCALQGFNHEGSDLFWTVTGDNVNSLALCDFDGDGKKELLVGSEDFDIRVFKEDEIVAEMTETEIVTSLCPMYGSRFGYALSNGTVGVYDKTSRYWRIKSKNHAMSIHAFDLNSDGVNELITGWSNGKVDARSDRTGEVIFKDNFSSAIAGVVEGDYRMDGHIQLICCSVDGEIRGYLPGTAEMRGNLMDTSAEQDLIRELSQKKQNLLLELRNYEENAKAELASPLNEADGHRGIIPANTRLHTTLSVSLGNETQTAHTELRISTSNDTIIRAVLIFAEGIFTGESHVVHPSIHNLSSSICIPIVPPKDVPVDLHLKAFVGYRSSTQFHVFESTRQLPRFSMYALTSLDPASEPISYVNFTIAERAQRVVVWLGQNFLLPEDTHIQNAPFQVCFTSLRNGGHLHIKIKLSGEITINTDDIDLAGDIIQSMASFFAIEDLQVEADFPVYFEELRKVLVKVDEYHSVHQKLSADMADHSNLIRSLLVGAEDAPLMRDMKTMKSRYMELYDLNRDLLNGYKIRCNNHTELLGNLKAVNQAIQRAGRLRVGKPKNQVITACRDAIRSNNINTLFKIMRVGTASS
The experiment can be described thus: co-IP.

The target in experiment [2] is B1. Nature of the experiment: negative-stain EM reconstruction + cross-linking.
For experiment [3], the target named is B2. Nature of the experiment: co-IP.

For B1, the “reduction in binding relative to WT” value in experiment [1] stood at 70%.
Regarding B2, the binding result in experiment [2] is recorded as “binds”.

B3: human BBS9 G141R, Flag-tagged (natural protein, UniProt Q3SYG4 1-887, looked up)
chain: MSLFKARDWWSTILGDKEEFDQGCLCLANVDNSGNGQDKIIVGSFMGYLRIFSPHPAKTGDGAQAEDLLLEVDLRDPVLQVEVGKFVSGTEMLHLAVLHSRKLCVYSVSGTLGNVEHGNQCQMKLMYEHNLQRTACNMTYRSFGGVKGRDLICIQSMDGMLMVFEQESYAFGRFLPGFLLPGPLAYSSRTDSFLTVSSCQQVESYKYQVLAFATDADKRQETEQQKLGSGKRLVVDWTLNIGEQALDICIVSFNQSASSVFVLGERNFFCLKDNGQIRFMKKLDWSPSCFLPYCSVSEGTINTLIGNHNNMLHIYQDVTLKWATQLPHIPVAVRVGCLHDLKGVIVTLSDDGHLQCSYLGTDPSLFQAPNVQSRELNYDELDVEMKELQKIIKDVNKSQGVWPMTEREDDLNVSVVVSPNFDSVSQATDVEVGTDLVPSVTVKVTLQNRVILQKAKLSVYVQPPLELTCDQFTFEFMTPDLTRTVSFSVYLKRSYTPSELEGNAVVSYSRPTDRNPDGIPRVIQCKFRLPLKLICLPGQPSKTASHKITIDTNKSPVSLLSLFPGFASQSDDDQVNVMGFHFLGGARITVLASKTSQRYRIQSEQFEDLWLITNELILRLQEYFEKQGVKDFACSFSGSIPLQEYFELIDHHFELRINGEKLEELLSERAVQFRAIQRRLLARFKDKTPAPLQHLDTLLDGTYKQVIALADAVEENQGNLFQSFTRLKSATHLVILLIALWQKLSADQVAILEAAFLPLQEDTQELGWEETVDAAISHLLKTCLSKSSKEQALNLNSQLNIPKDTSQLKKHITLLCDRLSKGGRLCLSTDAAAPQTMVMPGGCTTIPESDLEERSVEQDSTELFTNHRHLTAETPRPEVSPLQGVSE
Regarding B3, the “reduction in binding relative to WT” value in experiment [3] came to 70%.
